Measurements as given in US20230355720A1, “PHARMACEUTICAL COMPOSITION FOR PREVENTING OR TREATING BONE DISEASES, COMPRISING TRIPLE AGONIST OR CONJUGATE THEREOF HAVING ACTIVITY WITH RESPECT TO ALL OF GLUCAGON, GLP-1 AND GLP RECEPTORS” (HANMI PHARM. CO., LTD., priority 2020, published 2023).
Bridge positions count the residues as written; N and C are the ends. Square brackets hold non-standard residues; d marks the D form. Ends that are not written are not given here. * marks the point of attachment. Acetyl(2-(4-imidazolyl)) = O=C(Cc1c[nH]cn1)*; Aib = CC(C)(N)C(=O)O

T1: human GIP receptor (human, UniProt P48546 22-466)
T1 sequence (looked up): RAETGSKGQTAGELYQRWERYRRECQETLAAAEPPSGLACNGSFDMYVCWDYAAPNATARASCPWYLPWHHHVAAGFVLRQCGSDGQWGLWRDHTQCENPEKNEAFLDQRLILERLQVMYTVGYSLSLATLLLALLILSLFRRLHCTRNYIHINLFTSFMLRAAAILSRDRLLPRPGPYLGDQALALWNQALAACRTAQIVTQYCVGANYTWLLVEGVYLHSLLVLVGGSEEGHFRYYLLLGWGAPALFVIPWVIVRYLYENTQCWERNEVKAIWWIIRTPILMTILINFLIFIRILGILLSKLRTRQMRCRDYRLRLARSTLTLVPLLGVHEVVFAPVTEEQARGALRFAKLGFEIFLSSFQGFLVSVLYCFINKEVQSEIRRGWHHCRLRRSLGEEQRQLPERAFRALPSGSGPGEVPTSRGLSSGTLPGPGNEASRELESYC


Each binder was assayed against human GCG receptor (human, UniProt P47871 26-477) (assay: cell-based or functional assay).
human GCG receptor, sequence (P47871 26-477): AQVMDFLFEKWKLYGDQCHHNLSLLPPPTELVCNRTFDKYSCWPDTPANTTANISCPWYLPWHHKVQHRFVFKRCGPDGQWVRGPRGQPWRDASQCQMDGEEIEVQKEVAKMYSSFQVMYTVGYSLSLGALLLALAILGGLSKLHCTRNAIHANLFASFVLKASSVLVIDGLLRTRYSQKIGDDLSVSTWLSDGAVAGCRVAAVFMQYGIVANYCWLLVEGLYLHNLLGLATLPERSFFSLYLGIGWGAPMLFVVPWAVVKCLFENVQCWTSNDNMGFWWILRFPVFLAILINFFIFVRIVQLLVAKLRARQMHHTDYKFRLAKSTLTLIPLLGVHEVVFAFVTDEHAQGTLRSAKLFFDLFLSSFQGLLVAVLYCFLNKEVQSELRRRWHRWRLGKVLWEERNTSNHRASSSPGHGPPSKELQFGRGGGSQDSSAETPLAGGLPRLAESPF

Binder	In vitro activity (%) compared with native peptide, vs Glucagon [%]
Y[Aib]QGTFTSDYSKYLDEKRAKDFVQWLLDHHPSSGQPPPSC (bridge 16-20; also: ring between positions 16 and 20, type not given here) [triple agonist of SEQ ID NO: 76]	47.6
Y[Aib]QGTFTSDYSKYLDECAAKDFVQWLLDHHPSSGQPPPS (bridge 16-20) [triple agonist of SEQ ID NO: 67]	46.2
H[Aib]QGTFTSDYSKCLDEKRAKEFVQWLLDHHPSSGQPPPS (bridge 16-20) [triple agonist of SEQ ID NO: 65]	25.2
{Acetyl(2-(4-imidazolyl))}-[Aib]QGTFTSDYSKCLDEKRAKEFVQWLLDHHPSSGQPPPS (bridge 15-19) [triple agonist of SEQ ID NO: 74]	0.9
Y[Aib]QGTFTSDYSKCLDEKRAKDFVQWLLDHHPSSGQPPPS (bridge 16-20) [triple agonist of SEQ ID NO: 70]	71.3
[Acetyl(2-(4-imidazolyl))][Aib]QGTFTSDCSKYLDERAAQDFVQWLLDGGPSSGAPPPS (not fully specified) [triple agonist of SEQ ID NO: 63]	< 0.1
Y[Aib]QGTFTSDYSKYLDECRAKDFVQWLLDHHPSSGQPPPS (bridge 16-20) [triple agonist of SEQ ID NO: 66]	172
Y[Aib]QGTFTSDYSKYLDEKAAKEFVQWLLDHHPSSGQPPPSC (bridge 16-20) [triple agonist of SEQ ID NO: 75]	8.5
H[Aib]QGTFTSDYSIAMDEIHQKDFVNWLLNTC (bridge 16-20) [triple agonist of SEQ ID NO: 57]	< 0.1
Y[Aib]QGTFTSDYSKCLDERAAKEFVQWLLDHHPSSGQPPPS (bridge 16-20) [triple agonist of SEQ ID NO: 69]	9.6
Y[Aib]QGTFTSDYSKYLDEKAAKDFVQWLLDHHPSSGQPPPSC (bridge 16-20; also: ring between positions 16 and 20, type not given here) [triple agonist of SEQ ID NO: 77]	12.2
H[Aib]QGTFTSDVSSYLDGQAAKEFVAWLLKGC [triple agonist of SEQ ID NO: 6]	< 0.1
H[Aib]QGTFTSDYSIAMDEIHQKDFVNWLLAQC (bridge 16-20; not fully specified) [triple agonist of SEQ ID NO: 55]	0.7
Y[Aib]QGTFTSDCSKYLDERAAKDFVQWLLDHHPSSGQPPPS (bridge 16-20) [triple agonist of SEQ ID NO: 72]	1
[Acetyl(2-(4-imidazolyl))][Aib]QGTFTSDYSIAMDEKHCKDFVNWLLNTK (bridge 16-20; not fully specified) [triple agonist of SEQ ID NO: 60]	< 0.1
[Acetyl(2-(4-imidazolyl))][Aib]QGTFTSDYSIAMDEIACKDFVNWLLNTK (bridge 16-20; not fully specified) [triple agonist of SEQ ID NO: 61]	< 0.1
{Acetyl(2-(4-imidazolyl))}-[Aib]QGTFTSDYSKYLDECRAKEFVQWLLDHHPSSGQPPPS (bridge 15-19) [triple agonist of SEQ ID NO: 73]	5.4
[Acetyl(2-(4-imidazolyl))][Aib]QGTFTSDKSKYLDERAAQDFVQWLLDGGPSSGAPPPS (not fully specified) [triple agonist of SEQ ID NO: 62]	< 0.1
[Acetyl(2-(4-imidazolyl))][Aib]QGTFTSDYSICMDEKHQKDFVNWLLNTK (bridge 16-20; not fully specified) [triple agonist of SEQ ID NO: 59]	< 0.1
Y[Aib]QGTFTSDYSKYLDERACKDFVQWLLDHHPSSGQPPPS (bridge 16-20) [triple agonist of SEQ ID NO: 71]	12.7
H[Aib]QGTFTSDVSKYLDGQAAKEFVAWLLKGC [triple agonist of SEQ ID NO: 7]	< 0.1
Y[Aib]QGTFTSDYSKYLDECAAKEFVQWLLDHHPSSGQPPPS (bridge 16-20) [triple agonist of SEQ ID NO: 64]	60.1
H[Aib]QGTFTSDYSKYLDEKRQKEFVQWLLNTKC (bridge 16-20) [triple agonist of SEQ ID NO: 58]	2.6
H[Aib]QGTFTSDVSKYLDGQAAQEFVAWLLKGC [triple agonist of SEQ ID NO: 8]	0.1
Y[Aib]QGTFTSDYSKCLDEKAAKEFVQWLLDHHPSSGQPPPS (bridge 16-20) [triple agonist of SEQ ID NO: 68]	8.8

Each binder was assayed against T1, human GIP receptor (assay: cell-based or functional assay).

Binder	In vitro activity (%) compared with native peptide, vs GIP [%]
Y[Aib]QGTFTSDYSKYLDEKRAKDFVQWLLDHHPSSGQPPPSC (bridge 16-20; also: ring between positions 16 and 20, type not given here) [triple agonist of SEQ ID NO: 76]	11.7
Y[Aib]QGTFTSDYSKYLDECAAKDFVQWLLDHHPSSGQPPPS (bridge 16-20) [triple agonist of SEQ ID NO: 67]	39.8
H[Aib]QGTFTSDYSKCLDEKRAKEFVQWLLDHHPSSGQPPPS (bridge 16-20) [triple agonist of SEQ ID NO: 65]	11.6
{Acetyl(2-(4-imidazolyl))}-[Aib]QGTFTSDYSKCLDEKRAKEFVQWLLDHHPSSGQPPPS (bridge 15-19) [triple agonist of SEQ ID NO: 74]	1
Y[Aib]QGTFTSDYSKCLDEKRAKDFVQWLLDHHPSSGQPPPS (bridge 16-20) [triple agonist of SEQ ID NO: 70]	64.4
[Acetyl(2-(4-imidazolyl))][Aib]QGTFTSDCSKYLDERAAQDFVQWLLDGGPSSGAPPPS (not fully specified) [triple agonist of SEQ ID NO: 63]	< 0.1
Y[Aib]QGTFTSDYSKYLDECRAKDFVQWLLDHHPSSGQPPPS (bridge 16-20) [triple agonist of SEQ ID NO: 66]	17.2
Y[Aib]QGTFTSDYSKYLDEKAAKEFVQWLLDHHPSSGQPPPSC (bridge 16-20) [triple agonist of SEQ ID NO: 75]	18
H[Aib]QGTFTSDYSIAMDEIHQKDFVNWLLNTC (bridge 16-20) [triple agonist of SEQ ID NO: 57]	0.3
Y[Aib]QGTFTSDYSKCLDERAAKEFVQWLLDHHPSSGQPPPS (bridge 16-20) [triple agonist of SEQ ID NO: 69]	62.8
Y[Aib]QGTFTSDYSKYLDEKAAKDFVQWLLDHHPSSGQPPPSC (bridge 16-20; also: ring between positions 16 and 20, type not given here) [triple agonist of SEQ ID NO: 77]	35.5
H[Aib]QGTFTSDVSSYLDGQAAKEFVAWLLKGC [triple agonist of SEQ ID NO: 6]	< 0.1
H[Aib]QGTFTSDYSIAMDEIHQKDFVNWLLAQC (bridge 16-20; not fully specified) [triple agonist of SEQ ID NO: 55]	2.4
Y[Aib]QGTFTSDCSKYLDERAAKDFVQWLLDHHPSSGQPPPS (bridge 16-20) [triple agonist of SEQ ID NO: 72]	1.6
[Acetyl(2-(4-imidazolyl))][Aib]QGTFTSDYSIAMDEKHCKDFVNWLLNTK (bridge 16-20; not fully specified) [triple agonist of SEQ ID NO: 60]	8.2
[Acetyl(2-(4-imidazolyl))][Aib]QGTFTSDYSIAMDEIACKDFVNWLLNTK (bridge 16-20; not fully specified) [triple agonist of SEQ ID NO: 61]	2.8
{Acetyl(2-(4-imidazolyl))}-[Aib]QGTFTSDYSKYLDECRAKEFVQWLLDHHPSSGQPPPS (bridge 15-19) [triple agonist of SEQ ID NO: 73]	3
[Acetyl(2-(4-imidazolyl))][Aib]QGTFTSDKSKYLDERAAQDFVQWLLDGGPSSGAPPPS (not fully specified) [triple agonist of SEQ ID NO: 62]	< 0.1
[Acetyl(2-(4-imidazolyl))][Aib]QGTFTSDYSICMDEKHQKDFVNWLLNTK (bridge 16-20; not fully specified) [triple agonist of SEQ ID NO: 59]	4
Y[Aib]QGTFTSDYSKYLDERACKDFVQWLLDHHPSSGQPPPS (bridge 16-20) [triple agonist of SEQ ID NO: 71]	94.7
H[Aib]QGTFTSDVSKYLDGQAAKEFVAWLLKGC [triple agonist of SEQ ID NO: 7]	< 0.1
Y[Aib]QGTFTSDYSKYLDECAAKEFVQWLLDHHPSSGQPPPS (bridge 16-20) [triple agonist of SEQ ID NO: 64]	92.9
H[Aib]QGTFTSDYSKYLDEKRQKEFVQWLLNTKC (bridge 16-20) [triple agonist of SEQ ID NO: 58]	0.2
H[Aib]QGTFTSDVSKYLDGQAAQEFVAWLLKGC [triple agonist of SEQ ID NO: 8]	< 0.1
Y[Aib]QGTFTSDYSKCLDEKAAKEFVQWLLDHHPSSGQPPPS (bridge 16-20) [triple agonist of SEQ ID NO: 68]	107

What follows are binders tested against human GLP-1 receptor (human, UniProt P43220 24-463) (assay: cell-based or functional assay).

Binder	In vitro activity (%) compared with native peptide, vs GLP-1 [%]
Y[Aib]QGTFTSDYSKYLDEKRAKDFVQWLLDHHPSSGQPPPSC (bridge 16-20; also: ring between positions 16 and 20, type not given here) [triple agonist of SEQ ID NO: 76]	10.3
Y[Aib]QGTFTSDYSKYLDECAAKDFVQWLLDHHPSSGQPPPS (bridge 16-20) [triple agonist of SEQ ID NO: 67]	28.5
H[Aib]QGTFTSDYSKCLDEKRAKEFVQWLLDHHPSSGQPPPS (bridge 16-20) [triple agonist of SEQ ID NO: 65]	95.4
{Acetyl(2-(4-imidazolyl))}-[Aib]QGTFTSDYSKCLDEKRAKEFVQWLLDHHPSSGQPPPS (bridge 15-19) [triple agonist of SEQ ID NO: 74]	12.9
Y[Aib]QGTFTSDYSKCLDEKRAKDFVQWLLDHHPSSGQPPPS (bridge 16-20) [triple agonist of SEQ ID NO: 70]	15.1
[Acetyl(2-(4-imidazolyl))][Aib]QGTFTSDCSKYLDERAAQDFVQWLLDGGPSSGAPPPS (not fully specified) [triple agonist of SEQ ID NO: 63]	15.3
Y[Aib]QGTFTSDYSKYLDECRAKDFVQWLLDHHPSSGQPPPS (bridge 16-20) [triple agonist of SEQ ID NO: 66]	15.8
Y[Aib]QGTFTSDYSKYLDEKAAKEFVQWLLDHHPSSGQPPPSC (bridge 16-20) [triple agonist of SEQ ID NO: 75]	35.1
H[Aib]QGTFTSDYSIAMDEIHQKDFVNWLLNTC (bridge 16-20) [triple agonist of SEQ ID NO: 57]	11.7
Y[Aib]QGTFTSDYSKCLDERAAKEFVQWLLDHHPSSGQPPPS (bridge 16-20) [triple agonist of SEQ ID NO: 69]	24.3
Y[Aib]QGTFTSDYSKYLDEKAAKDFVQWLLDHHPSSGQPPPSC (bridge 16-20; also: ring between positions 16 and 20, type not given here) [triple agonist of SEQ ID NO: 77]	38.7
H[Aib]QGTFTSDVSSYLDGQAAKEFVAWLLKGC [triple agonist of SEQ ID NO: 6]	17
H[Aib]QGTFTSDYSIAMDEIHQKDFVNWLLAQC (bridge 16-20; not fully specified) [triple agonist of SEQ ID NO: 55]	27.1
Y[Aib]QGTFTSDCSKYLDERAAKDFVQWLLDHHPSSGQPPPS (bridge 16-20) [triple agonist of SEQ ID NO: 72]	11.5
[Acetyl(2-(4-imidazolyl))][Aib]QGTFTSDYSIAMDEKHCKDFVNWLLNTK (bridge 16-20; not fully specified) [triple agonist of SEQ ID NO: 60]	106
[Acetyl(2-(4-imidazolyl))][Aib]QGTFTSDYSIAMDEIACKDFVNWLLNTK (bridge 16-20; not fully specified) [triple agonist of SEQ ID NO: 61]	59.8
{Acetyl(2-(4-imidazolyl))}-[Aib]QGTFTSDYSKYLDECRAKEFVQWLLDHHPSSGQPPPS (bridge 15-19) [triple agonist of SEQ ID NO: 73]	22.6
[Acetyl(2-(4-imidazolyl))][Aib]QGTFTSDKSKYLDERAAQDFVQWLLDGGPSSGAPPPS (not fully specified) [triple agonist of SEQ ID NO: 62]	5.2
[Acetyl(2-(4-imidazolyl))][Aib]QGTFTSDYSICMDEKHQKDFVNWLLNTK (bridge 16-20; not fully specified) [triple agonist of SEQ ID NO: 59]	40.3
Y[Aib]QGTFTSDYSKYLDERACKDFVQWLLDHHPSSGQPPPS (bridge 16-20) [triple agonist of SEQ ID NO: 71]	90.1
H[Aib]QGTFTSDVSKYLDGQAAKEFVAWLLKGC [triple agonist of SEQ ID NO: 7]	13.7
Y[Aib]QGTFTSDYSKYLDECAAKEFVQWLLDHHPSSGQPPPS (bridge 16-20) [triple agonist of SEQ ID NO: 64]	64.6
H[Aib]QGTFTSDYSKYLDEKRQKEFVQWLLNTKC (bridge 16-20) [triple agonist of SEQ ID NO: 58]	39.1
H[Aib]QGTFTSDVSKYLDGQAAQEFVAWLLKGC [triple agonist of SEQ ID NO: 8]	14.2
Y[Aib]QGTFTSDYSKCLDEKAAKEFVQWLLDHHPSSGQPPPS (bridge 16-20) [triple agonist of SEQ ID NO: 68]	27.9
